Results as given in article PMC10333598.

Legend:
[1] = biological target: Bcl-xL (Homo sapiens) (UniProt Q07817); test: ITC; settings: cited from earlier work
[2] = biological target: Mcl-1 (Homo sapiens) (UniProt Q07820); settings: cited from earlier work
[3] = biological target: human Mcl-1 ΔPESTΔTM (human); test: NMR competition (15N SOFAST-HMQC); 15N-Mcl-1 with an excess (5 eq. total) of an equimolar mix of TCTPBH3, TCTPBH3D16I and MuleBH3, 2 h at room temperature; populations from intensities of seven reporter residues; 950 MHz, 298 K, 50 mM MES pH 6.5, 50 mM EPPS, 50 mM NaCl, 2 mM TCEP
[4] = biological target: human Mcl-1 ΔPESTΔTM (human); test: SEC + other: SAXS; equimolar mix of TCTP and Mcl-1 (500 μM each), 2 h incubation, Superdex 200 10/300 in line with SAXS; 50 mM CHES pH 9, 50 mM NaCl, 2 mM TCEP; 37 °C (308 K in the legend)
[5] = biological target: human Mcl-1 ΔPESTΔTM (human); test: NMR titration; 15N SOFAST-HMQC of 15N-Mcl-1 (100 μM) with unlabeled BH3 peptide added (TCTPBH3 0-500 μM, up to 5 eq.; TCTPBH3D16I and MuleBH3 up to 3 eq.); 950 MHz, 308 K, 50 mM MES pH 6.5, 50 mM EPPS, 50 mM NaCl, 2 mM TCEP; KD and koff from TITAN 2D line shape analysis, two-state model

UniProt Q07817, sequence (Q07817 whole entry): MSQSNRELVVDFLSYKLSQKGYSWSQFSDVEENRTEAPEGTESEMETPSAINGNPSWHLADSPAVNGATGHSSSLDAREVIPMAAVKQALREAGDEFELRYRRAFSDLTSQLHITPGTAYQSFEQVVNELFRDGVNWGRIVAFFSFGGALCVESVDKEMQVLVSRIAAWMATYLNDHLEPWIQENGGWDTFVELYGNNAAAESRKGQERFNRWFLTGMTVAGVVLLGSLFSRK
UniProt Q07820, sequence (Q07820 whole entry): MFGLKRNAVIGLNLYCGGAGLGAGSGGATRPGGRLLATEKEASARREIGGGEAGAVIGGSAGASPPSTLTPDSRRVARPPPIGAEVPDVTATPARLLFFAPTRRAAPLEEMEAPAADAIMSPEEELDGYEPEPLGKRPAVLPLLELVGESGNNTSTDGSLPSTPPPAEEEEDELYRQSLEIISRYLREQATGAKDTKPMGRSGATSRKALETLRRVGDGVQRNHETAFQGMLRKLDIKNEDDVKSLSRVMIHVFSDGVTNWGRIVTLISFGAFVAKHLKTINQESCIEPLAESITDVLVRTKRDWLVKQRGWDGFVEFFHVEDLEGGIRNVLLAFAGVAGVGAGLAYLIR

Molecule: TCTP BH3 (from UniProt P13693)
- Kd [1]: 12 µM

Molecule: Mule BH3 (from UniProt Q7Z6Z7)
- Kd [2]: 29 nM

Molecule: DEMFSIIYKIREIADGLCLEVE [TCTP BH3-like peptide D16I mutant (TCTPBH3D16I)]
- relative population of Mcl-1 bound (in the mix of three peptides) [3]: 45%

B1: full-length human TCTP (FL-TCTP) (natural protein)
chain: MIIYRDLISHDEMFSDIYKIREIADGLCLEVEGKMVSRTEGNIDDSLIGGNASAEGPEGEGTESTVITGVDIVMNHHLQETSFTKEAYKKYIKDYMKSIKGKLEEQRPERVKPFMTGAAEQIKHILANFKNYQFFIGENMNPDGMVALLDYREDGVTPYMIFFKDGLEMEKC
- stoichiometry N [4]: 1

Molecule: DEMFSDIYKIREIADGLCLEVE [TCTP BH3-like peptide (TCTPBH3)]
- fold weaker affinity than TCTPBH3D16I and MuleBH3 [3]: 10 fold
- Kd [5]: 7.9 µM
- koff [5]: 56 s⁻¹
